The target of data set [1] is GAL4-DBD-fused RAD52 (10xQ) (human) (UniProt P43351). Put plainly: two-hybrid; yeast; GAL4 DBD-fused RAD52 with NLS-GAL4 AD fusions; lacZ reporter, liquid beta-galactosidase assay, activity relative to RAD52 (Wt).
For another data set, the target named is T1, RAD52 wild type (Homo sapiens, UniProt P43351 1-418).
T1 sequence: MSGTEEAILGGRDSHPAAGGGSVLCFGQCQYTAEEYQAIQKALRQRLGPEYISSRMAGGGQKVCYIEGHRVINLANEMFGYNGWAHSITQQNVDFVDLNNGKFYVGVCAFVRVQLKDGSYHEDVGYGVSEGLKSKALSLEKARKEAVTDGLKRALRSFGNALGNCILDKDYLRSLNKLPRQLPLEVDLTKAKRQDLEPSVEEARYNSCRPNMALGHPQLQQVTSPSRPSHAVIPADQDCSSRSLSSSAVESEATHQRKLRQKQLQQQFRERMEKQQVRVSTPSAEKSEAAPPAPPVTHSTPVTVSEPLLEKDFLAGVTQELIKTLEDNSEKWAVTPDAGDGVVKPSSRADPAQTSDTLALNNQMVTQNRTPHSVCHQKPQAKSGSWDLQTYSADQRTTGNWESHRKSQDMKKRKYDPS
The data set is described as follows: EMSA; 10 uM nucleotides DNA; 16 uL reactions, Cy5-50-mer 10 uM in nucleotides; 5X buffer contains 0.1 M HEPES-NaOH pH 7.5 (20 mM final if 1X); remaining components, salt and temperature cut off in the material. Particulars: protein: recombinant; tags: C-terminal His6 construct (pET21a) or pET15b construct; label: 5'-Cy5; single strand, 50 nt. (A gel shift assay detects complexes by their altered migration in electrophoresis.)

Molecule “GAL4-DBD-fused RAD52 (10xQ) (from UniProt P43351 1-418) (natural protein)” returned a fold change of beta-galactosidase activity against RAD52 (Wt) in data set [1] of 1.7 fold.

As to TCGCCATCAACTAACGATTCTGTCAAAAACTGACGCGTTGGATGAGGAGA (ssDNA) [FX174-50-1 (oligo 1)], in the data set with RAD52 wild type, the binding result is “binds”.

The record behind these values is paper PMC5891081.
